T1: fasTFR1 (cell-expressed) (Macaca fascicularis)
T1 chain: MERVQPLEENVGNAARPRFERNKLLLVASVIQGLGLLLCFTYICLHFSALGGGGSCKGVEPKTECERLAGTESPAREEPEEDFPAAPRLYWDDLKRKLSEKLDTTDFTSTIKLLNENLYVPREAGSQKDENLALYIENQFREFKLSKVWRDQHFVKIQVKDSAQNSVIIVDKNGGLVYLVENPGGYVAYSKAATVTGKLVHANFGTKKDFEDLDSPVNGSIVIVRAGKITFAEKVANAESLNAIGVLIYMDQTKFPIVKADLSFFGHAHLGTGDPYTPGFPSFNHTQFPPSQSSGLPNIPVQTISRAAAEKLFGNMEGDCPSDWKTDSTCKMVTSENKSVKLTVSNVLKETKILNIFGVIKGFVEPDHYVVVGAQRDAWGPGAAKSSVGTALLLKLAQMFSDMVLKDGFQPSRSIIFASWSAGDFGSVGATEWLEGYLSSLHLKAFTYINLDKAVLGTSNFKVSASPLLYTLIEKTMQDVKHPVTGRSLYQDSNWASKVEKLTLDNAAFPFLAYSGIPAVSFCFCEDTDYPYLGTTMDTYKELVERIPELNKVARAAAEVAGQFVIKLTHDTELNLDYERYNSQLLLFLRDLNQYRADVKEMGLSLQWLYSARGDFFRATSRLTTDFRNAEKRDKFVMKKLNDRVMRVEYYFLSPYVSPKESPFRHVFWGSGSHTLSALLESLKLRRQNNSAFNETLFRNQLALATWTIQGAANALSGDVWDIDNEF


Tests used:
hTFR1-His = hTFR1-His (human, UniProt P02786); test: SPR
Sequence of hTFR1-His (P02786 89-760): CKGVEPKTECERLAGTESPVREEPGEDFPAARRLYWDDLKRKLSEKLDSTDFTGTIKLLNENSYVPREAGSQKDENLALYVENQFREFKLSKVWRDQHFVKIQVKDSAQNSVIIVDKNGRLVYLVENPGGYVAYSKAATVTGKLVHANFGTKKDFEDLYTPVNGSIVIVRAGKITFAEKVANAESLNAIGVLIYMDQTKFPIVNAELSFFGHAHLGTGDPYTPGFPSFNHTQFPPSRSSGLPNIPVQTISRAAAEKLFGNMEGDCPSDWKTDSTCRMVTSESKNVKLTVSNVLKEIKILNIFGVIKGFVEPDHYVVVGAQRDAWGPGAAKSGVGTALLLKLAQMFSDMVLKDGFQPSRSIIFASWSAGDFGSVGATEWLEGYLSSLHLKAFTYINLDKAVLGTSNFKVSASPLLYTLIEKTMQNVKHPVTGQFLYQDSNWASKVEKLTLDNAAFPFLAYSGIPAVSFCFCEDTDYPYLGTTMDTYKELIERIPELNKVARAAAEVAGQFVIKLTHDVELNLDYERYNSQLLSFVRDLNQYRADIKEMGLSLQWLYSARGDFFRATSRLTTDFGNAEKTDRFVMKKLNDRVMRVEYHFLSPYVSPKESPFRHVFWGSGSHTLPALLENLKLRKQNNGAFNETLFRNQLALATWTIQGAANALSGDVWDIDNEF

fasTFR1 (cell-expressed) = biological target: T1, fasTFR1 (cell-expressed); test: FACS

Binder	Kd (hTFR1-His) [nM]	binding result (fasTFR1 (cell-expressed))
23B8 (antibody, V domains shown) VH: QVTLKESGGGLVKPGGSLRLSCAASGFPFSNAWMNWVRQAPGKGLEWVGHIKSKTDGGTTDYAAPVKGRFTISRDDSKNMVFLQMNSLKTEDTAVYYCTTDRAYCGGDCSHYYYHDLDVWGQGTTVTVSS	8.73	
24A1 (designed binder) EVQLVESGGGLVQPGGSLRLTCAASGFTFSSYAMSWVRQAPGKGLERVSEISGSGSSTNYADSVKGRFTISRDNSKNTLYLQMNSLRAEDTAVYYCAKDDSSGWAFNIWDQGTVVTVSS	2.93	

Second part, the binder after the results:

Kd (hTFR1-His) [nM]	binding result (fasTFR1 (cell-expressed))	Binder
14.3	no binding	24C9 (antibody, V domains shown) VH: EVQLVQSGGGVVQPGRSLRLSCAASGFTLSSYGMYWVRQAPGKGREWVAFIRFDESKKYYADSVKGRFTISRDNSKNTLYLQMNSLRAEDTAVYYCARDGEGGYCTNGVCHGLDVWGQGTTVTVSS
2.05		24G5 (designed binder) QLQLQESGGGLVQPGGSLRLTCAASGFTFSSFAMSWVRQAPGKGLERVSEISDSGGNTYYADSVKGRFTISRDNSKNTLYLQMNSLRAEDTAVYYCAKDDSSGWAFNIWDQGTVVTVSS

Reference: patent publication US20260364189 (published 2026)
